In US20230416365A1 (Hoffmann-La Roche, published 2023) one finds Kd, koff and kon data, which are given here for eight molecules.

The labels stand for the following.
B1: bispecific CEA (A5H1EL1D)-CD28 (SA Variant 15) 1+1 IgG of Example 10.3 (bispecific antibody)
heavy 1: EVQLLESGGGLVQPGGSLRLSCAASGFTFTDYYMNWVRQAPGKGLEWLGFIGNKANAYTTEYSASVKGRFTISRDKSKNTLYLQMNSLRAEDTATYYCTRDRGLRFYFDYWGQGTTVTVSSASTKGPSVFPLAPSSKSTSGGTAALGCLVKDYFPEPVTVSWNSGALTSGVHTFPAVLQSSGLYSLSSVVTVPSSSLGTQTYICNVNHKPSNTKVDKKVEPKSCDKTHTCPPCPAPEAAGGPSVFLFPPKPKDTLMISRTPEVTCVVVDVSHEDPEVKFNWYVDGVEVHNAKTKPREEQYNSTYRVVSVLTVLHQDWLNGKEYKCKVSNKALGAPIEKTISKAKGQPREPQVCTLPPSRDELTKNQVSLSCAVKGFYPSDIAVEWESNGQPENNYKTTPPVLDSDGSFFLVSKLTVDKSRWQQGNVFSCSVMHEALHNHYTQKSLSLSP
light 1: EIVLTQSPATLSLSPGERATLSCRASSSVTYIHWYQQKPGQAPRSWIYATSNLASGIPARFSGSGSGTDFTLTISSLEPEDFAVYYCQHWSSKPPTFGQGTKLEIKRTVAAPSVFIFPPSDEQLKSGTASVVCLLNNFYPREAKVQWKVDNALQSGNSQESVTEQDSKDSTYSLSSTLTLSKADYEKHKVYACEVTHQGLSSPVTKSFNRGEC
heavy 2: not shown
light 2: not shown
notes: knob-into-hole, crossmab, PG-LALA
B2: bispecific CEA (P005.102)-CD28 (SA Variant 15) 1+1 IgG (bispecific antibody)
heavy 1: EIVLTQSPATLSLSPGERATLSCRASSSVTYIHWYQQKPGQAPRSWIYATSNLASGIPARFSGSGSGTDFTLTISSLEPEDFAVYYCQHWSSKSPTFGQGTKLEIKSSASTKGPSVFPLAPSSKSTSGGTAALGCLVKDYFPEPVTVSWNSGALTSGVHTFPAVLQSSGLYSLSSVVTVPSSSLGTQTYICNVNHKPSNTKVDKKVEPKSCDKTHTCPPCPAPEAAGGPSVFLFPPKPKDTLMISRTPEVTCVVVDVSHEDPEVKFNWYVDGVEVHNAKTKPREEQYNSTYRVVSVLTVLHQDWLNGKEYKCKVSNKALGAPIEKTISKAKGQPREPQVCTLPPSRDELTKNQVSLSCAVKGFYPSDIAVEWESNGQPENNYKTTPPVLDSDGSFFLVSKLTVDKSRWQQGNVFSCSVMHEALHNHYTQKSLSLSP
light 1: EVQLLESGGGLVQPGGSLRLSCAASGFTFTDYYMNWVRQAPGKGLEWLGFIGNKANAYTTEYSASVKGRFTISRDKSKNTLYLQMNSLRAEDTATYYCTRDRGIRFQFDYWGQGTTVTVSSASVAAPSVFIFPPSDEQLKSGTASVVCLLNNFYPREAKVQWKVDNALQSGNSQESVTEQDSKDSTYSLSSTLTLSKADYEKHKVYACEVTHQGLSSPVTKSFNRGEC
heavy 2: not shown
light 2: not shown
notes: as for B1
B3: bispecific CEA (P005.097)-CD28 (SA Variant 15) 1+1 IgG (bispecific antibody)
heavy 1: EIVLTQSPATLSLSPGERATLSCRASSSVTYIHWYQQKPGQAPRSWIYATSNLASGIPARFSGSGSGTDFTLTISSLEPEDFAVYYCQHWSSQPPTFGQGTKLEIKSSASTKGPSVFPLAPSSKSTSGGTAALGCLVKDYFPEPVTVSWNSGALTSGVHTFPAVLQSSGLYSLSSVVTVPSSSLGTQTYICNVNHKPSNTKVDKKVEPKSCDKTHTCPPCPAPEAAGGPSVFLFPPKPKDTLMISRTPEVTCVVVDVSHEDPEVKFNWYVDGVEVHNAKTKPREEQYNSTYRVVSVLTVLHQDWLNGKEYKCKVSNKALGAPIEKTISKAKGQPREPQVCTLPPSRDELTKNQVSLSCAVKGFYPSDIAVEWESNGQPENNYKTTPPVLDSDGSFFLVSKLTVDKSRWQQGNVFSCSVMHEALHNHYTQKSLSLSP
light 1: EVQLLESGGGLVQPGGSLRLSCAASGFTFTDYYMNWVRQAPGKGLEWLGFIGNKANAYTTEYSASVKGRFTISRDKSKNTLYLQMNSLRAEDTATYYCTRDRGLRFSFDYWGQGTTVTVSSASVAAPSVFIFPPSDEQLKSGTASVVCLLNNFYPREAKVQWKVDNALQSGNSQESVTEQDSKDSTYSLSSTLTLSKADYEKHKVYACEVTHQGLSSPVTKSFNRGEC
heavy 2: not shown
light 2: not shown
notes: as for B1
B4: bispecific CEA (P005.102-combo1)-CD28 (SA Variant 15) 1+1 IgG (bispecific antibody)
heavy 1: EIVLTQSPATLSLSPGERATLSCRASSSVTYIHWYQQKPGQAPRSWIYATSNLASGIPARFSGSGSGTDFTLTISSLEPEDFAVYYCQHWSSKSPTFGQGTKLEIKSSASTKGPSVFPLAPSSKSTSGGTAALGCLVKDYFPEPVTVSWNSGALTSGVHTFPAVLQSSGLYSLSSVVTVPSSSLGTQTYICNVNHKPSNTKVDKKVEPKSCDKTHTCPPCPAPEAAGGPSVFLFPPKPKDTLMISRTPEVTCVVVDVSHEDPEVKFNWYVDGVEVHNAKTKPREEQYNSTYRVVSVLTVLHQDWLNGKEYKCKVSNKALGAPIEKTISKAKGQPREPQVCTLPPSRDELTKNQVSLSCAVKGFYPSDIAVEWESNGQPENNYKTTPPVLDSDGSFFLVSKLTVDKSRWQQGNVFSCSVMHEALHNHYTQKSLSLSP
light 1: EVQLLESGGGLVQPGGSLRLSCAASGFYFTDYYMNWVRQAPGKGLEWLGVISNKANAYTTEYSASVKGRFTISRDKSKNTLYLQMNSLRAEDTATYYCTRDRGIRFQFDYWGQGTTVTVSSASVAAPSVFIFPPSDEQLKSGTASVVCLLNNFYPREAKVQWKVDNALQSGNSQESVTEQDSKDSTYSLSSTLTLSKADYEKHKVYACEVTHQGLSSPVTKSFNRGEC
heavy 2: not shown
light 2: not shown
notes: as for B1
B5: bispecific CEA (P005.103)-CD28 (SA Variant 15) 1+1 IgG (bispecific antibody)
heavy 1: EIVLTQSPATLSLSPGERATLSCRASSSVTYIHWYQQKPGQAPRSWIYATSNLASGIPARFSGSGSGTDFTLTISSLEPEDFAVYYCQHWSSISPTFGQGTKLEIKSSASTKGPSVFPLAPSSKSTSGGTAALGCLVKDYFPEPVTVSWNSGALTSGVHTFPAVLQSSGLYSLSSVVTVPSSSLGTQTYICNVNHKPSNTKVDKKVEPKSCDKTHTCPPCPAPEAAGGPSVFLFPPKPKDTLMISRTPEVTCVVVDVSHEDPEVKFNWYVDGVEVHNAKTKPREEQYNSTYRVVSVLTVLHQDWLNGKEYKCKVSNKALGAPIEKTISKAKGQPREPQVCTLPPSRDELTKNQVSLSCAVKGFYPSDIAVEWESNGQPENNYKTTPPVLDSDGSFFLVSKLTVDKSRWQQGNVFSCSVMHEALHNHYTQKSLSLSP
light 1: EVQLLESGGGLVQPGGSLRLSCAASGFTFTDYYMNWVRQAPGKGLEWLGFIGNKANAYTTEYSASVKGRFTISRDKSKNTLYLQMNSLRAEDTATYYCTRDRGIRFYFDYWGQGTTVTVSSASVAAPSVFIFPPSDEQLKSGTASVVCLLNNFYPREAKVQWKVDNALQSGNSQESVTEQDSKDSTYSLSSTLTLSKADYEKHKVYACEVTHQGLSSPVTKSFNRGEC
heavy 2: not shown
light 2: not shown
notes: as for B1
B6: bispecific CEA (P005.102-combo2)-CD28 (SA Variant 15) 1+1 IgG (bispecific antibody)
heavy 1: EIVLTQSPATLSLSPGERATLSCRASSSVTYIHWYQQKPGQAPRSWIYATSNLASGIPARFSGSGSGTDFTLTISSLEPEDFAVYYCQHWSSKSPTFGQGTKLEIKSSASTKGPSVFPLAPSSKSTSGGTAALGCLVKDYFPEPVTVSWNSGALTSGVHTFPAVLQSSGLYSLSSVVTVPSSSLGTQTYICNVNHKPSNTKVDKKVEPKSCDKTHTCPPCPAPEAAGGPSVFLFPPKPKDTLMISRTPEVTCVVVDVSHEDPEVKFNWYVDGVEVHNAKTKPREEQYNSTYRVVSVLTVLHQDWLNGKEYKCKVSNKALGAPIEKTISKAKGQPREPQVCTLPPSRDELTKNQVSLSCAVKGFYPSDIAVEWESNGQPENNYKTTPPVLDSDGSFFLVSKLTVDKSRWQQGNVFSCSVMHEALHNHYTQKSLSLSP
light 1: EVQLLESGGGLVQPGGSLRLSCAASGFYFSDYYMNWVRQAPGKGLEWLGVISNKANAYTTEYSASVKGRFTISRDKSKNTLYLQMNSLRAEDTATYYCTRDRGIRFQFDYWGQGTTVTVSSASVAAPSVFIFPPSDEQLKSGTASVVCLLNNFYPREAKVQWKVDNALQSGNSQESVTEQDSKDSTYSLSSTLTLSKADYEKHKVYACEVTHQGLSSPVTKSFNRGEC
heavy 2: not shown
light 2: not shown
notes: as for B1
B7: bispecific CEA (P001.177)-CD28 (SA Variant 15) 1+1 IgG (bispecific antibody)
heavy 1: EIVLTQSPATLSLSPGERATLSCRASSSVTYIHWYQQKPGQAPRSWIYATSNLASGIPARFSGSGSGTDFTLTISSLEPEDFAVYYCQHWSSKPPTFGQGTKLEIKSSASTKGPSVFPLAPSSKSTSGGTAALGCLVKDYFPEPVTVSWNSGALTSGVHTFPAVLQSSGLYSLSSVVTVPSSSLGTQTYICNVNHKPSNTKVDKKVEPKSCDKTHTCPPCPAPEAAGGPSVFLFPPKPKDTLMISRTPEVTCVVVDVSHEDPEVKFNWYVDGVEVHNAKTKPREEQYNSTYRVVSVLTVLHQDWLNGKEYKCKVSNKALGAPIEKTISKAKGQPREPQVCTLPPSRDELTKNQVSLSCAVKGFYPSDIAVEWESNGQPENNYKTTPPVLDSDGSFFLVSKLTVDKSRWQQGNVFSCSVMHEALHNHYTQKSLSLSP
light 1: EVQLLESGGGLVQPGGSLRLSCAASGFYFTDYYMNWVRQAPGKGLEWLGFISNKANAYTTEYSASVKGRFTISRDKSKNTLYLQMNSLRAEDTATYYCTRDRGLRFYFDYWGQGTTVTVSSASVAAPSVFIFPPSDEQLKSGTASVVCLLNNFYPREAKVQWKVDNALQSGNSQESVTEQDSKDSTYSLSSTLTLSKADYEKHKVYACEVTHQGLSSPVTKSFNRGEC
heavy 2: not shown
light 2: not shown
notes: as for B1
B8: bispecific CEA (P002.139)-CD28 (SA Variant 15) 1+1 IgG (bispecific antibody)
heavy 1: EIVLTQSPATLSLSPGERATLSCHASSSVTYIHWYQQKPGQAPRSWIYATSNLASGIPARFSGSGSGTDFTLTISSLEPEDFAVYYCQHWSSKPPTFGQGTKLEIKSSASTKGPSVFPLAPSSKSTSGGTAALGCLVKDYFPEPVTVSWNSGALTSGVHTFPAVLQSSGLYSLSSVVTVPSSSLGTQTYICNVNHKPSNTKVDKKVEPKSCDKTHTCPPCPAPEAAGGPSVFLFPPKPKDTLMISRTPEVTCVVVDVSHEDPEVKFNWYVDGVEVHNAKTKPREEQYNSTYRVVSVLTVLHQDWLNGKEYKCKVSNKALGAPIEKTISKAKGQPREPQVCTLPPSRDELTKNQVSLSCAVKGFYPSDIAVEWESNGQPENNYKTTPPVLDSDGSFFLVSKLTVDKSRWQQGNVFSCSVMHEALHNHYTQKSLSLSP
light 1: EVQLLESGGGLVQPGGSLRLSCAASGFYFTDYAMNWVRQAPGKGLEWLGVISNKANAYTTEYSASVKGRFTISRDKSKNTLYLQMNSLRAEDTATYYCTRDRGLRFYFDYWGQGTTVTVSSASVAAPSVFIFPPSDEQLKSGTASVVCLLNNFYPREAKVQWKVDNALQSGNSQESVTEQDSKDSTYSLSSTLTLSKADYEKHKVYACEVTHQGLSSPVTKSFNRGEC
heavy 2: not shown
light 2: not shown
notes: as for B1

The target of this test is T1, N(A2B2)A-avi-His (biotinylated at the avi tag).
T1 construct: also called biotinylated N(A2B2)A-avi-His
T1 chain: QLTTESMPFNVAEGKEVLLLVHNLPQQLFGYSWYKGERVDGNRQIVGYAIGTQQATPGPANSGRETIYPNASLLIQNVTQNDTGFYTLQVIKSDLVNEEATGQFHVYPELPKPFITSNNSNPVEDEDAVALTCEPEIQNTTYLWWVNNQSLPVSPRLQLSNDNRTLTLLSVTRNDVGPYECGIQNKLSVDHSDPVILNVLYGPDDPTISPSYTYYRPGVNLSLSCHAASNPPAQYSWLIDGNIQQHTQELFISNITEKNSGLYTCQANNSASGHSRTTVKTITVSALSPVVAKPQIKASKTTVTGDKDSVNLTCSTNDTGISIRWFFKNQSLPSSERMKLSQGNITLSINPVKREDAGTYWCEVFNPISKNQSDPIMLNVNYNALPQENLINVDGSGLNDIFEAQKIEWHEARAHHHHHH
In words: SPR, ProteOn, antigen on NLC chip, bispecific IgG as analyte. A general note: Surface plasmon resonance follows binding to a sensor surface in real time, without labels.
Method: About 2000, 1000, 500, and 250 RU of biotinylated N(A2B2)A-avi-His were immobilized on 4 channels of a Streptavidin-coated NLC chip in vertical orientation. As a control for non-specific binding, 2000 RU of biotinylated NA(B2)A-avi-His protein was immobilized on channel 5. For the determination of the affinity (KD) of the purified bispecific constructs, injection direction was changed to horizontal orientation. […] Buffer (PBST) was injected along the sixth channel to provide an “in-line” blank for referencing. Regeneration was performed with 10 mM glycine pH 1.5 for 20 s at 50 ul/min (vertical orientation).
Association rate constants (kon) and dissociation rate constants (koff) were calculated using a simple one-to-one Langmuir binding model in ProteOn Manager v3.1 software by simultaneously fitting the association and dissociation sensorgrams. The equilibrium dissociation constant (KD) was calculated as the ratio koff/kon.
Turning to B1, the dissociation constant (Kd) (usually a measure of binding affinity in units of concentration) is 2.11 nM; the off-rate constant (koff) (as a rule, the first-order rate constant of dissociation) came out at 0.000333 s⁻¹; the kon (as a rule, the rate constant with which the complex forms) is 158000 M⁻¹ s⁻¹.

As for B2, binding was put at a Kd of 0.2 nM, the koff was 3.31e-05 s⁻¹ and the kon is 160000 M⁻¹ s⁻¹.

In the case of B3, binding was characterised by a dissociation constant (Kd) of 0.33 nM, the off-rate constant (koff) was 8.87e-05 s⁻¹ and the kon amounted to 269000 M⁻¹ s⁻¹.

As to B4, the equilibrium dissociation constant (Kd) was 0.06 nM, the koff is 1.23e-05 s⁻¹ and the kon was found to be 207000 M⁻¹ s⁻¹.

Regarding B5, the dissociation constant (Kd) is 0.44 nM, the off-rate constant (koff) came to 0.000112 s⁻¹ and the on-rate (kon) turned out to be 257000 M⁻¹ s⁻¹.

In turn, B6 gave a Kd of 0.08 nM, an off-rate (koff) of 1.85e-05 s⁻¹ and an association rate constant (kon) of 225000 M⁻¹ s⁻¹.

Molecule B7 gave a Kd of 0.43 nM, a koff of 8.83e-05 s⁻¹ and a kon of 205000 M⁻¹ s⁻¹.

B8 gave a dissociation constant Kd of 0.39 nM, a dissociation rate constant (koff) of 9.7e-05 s⁻¹ and a kon of 249000 M⁻¹ s⁻¹.
